{"source": "patent US10920254B2", "about": "“Methods and materials for producing 5 and 7-carbon monomers” (INVISTA North America S.á.r.l., priority 2015, dated 2021)", "experiment": "carboxylate reductase enzyme activity assay (N7-acetyl-7-aminoheptanoate to N7-acetyl-7-aminoheptanal), NADPH consumption at 340 nm", "type": "biochemical", "settings": "purified enzyme enhanced by gene product of sfp; 2 mM N7-acetyl-7-aminoheptanoate, 1 mM ATP, 1 mM NADPH, pH 7.5, room temperature, 20 min; FIG. 10", "protocol": "The activity of each of the N-terminal His-tagged carboxylate reductases of SEQ ID NOs: 3, 5, and 6 (see Examples 2 and 3, and FIG. 6B, FIGS. 6D-6E) for converting N7-acetyl-7-aminoheptanoate to N7-acetyl-7-aminoheptanal was assayed in triplicate in a buffer composed of a final concentration of 50 mM HEPES buffer (pH=7.5), 2 mM N7-acetyl-7-aminoheptanoate, 10 mM MgCl2, 1 mM ATP, and 1 mM NADPH. The assays were initiated by adding purified carboxylate reductase and phosphopantetheine transferase or the empty vector control to the assay buffer containing the N7-acetyl-7-aminoheptanoate then incubated at room temperature for 20 min. The consumption of NADPH was monitored by absorbance at 340 nm.", "data": [{"molecule": "SEQ ID NO: 5: Mycobacterium massiliense carboxylate reductase, N-terminal HIS tagged (protein, listed as Mycobacterium abscessus, N-terminal His tag; Mycobacterium abscessus subsp. bolletii, Mycobacterium massiliense carboxylate reductase, N-terminal HIS tagged) MTNETNPQQEQLSRRIESLRESDPQFRAAQPDPAVAEQVLRPGLHLSEAIAALMTGYAERPALGERARELVIDQDGRTTLRLLPRFDTTTYGELWSRTTSVAAAWHHDATHPVKAGDLVATLGFTSIDYTVLDLAIMILGGVAVPLQTSAPASQWTTILAEAEPNTLAVSIELIGAAMESVRATPSIKQVVVFDYTPEVDDQREAFEAASTQLAGTGIALETLDAVIARGAALPAAPLYAPSAGDDPLALLIYTSGSTGAPKGAMHSENIVRRWWIREDVMAGTENLPMIGLNFMPMSHIMGRGTLTSTLSTGGTGYFAASSDMSTLFEDMELIRPTALALVPRVCDMVFQRFQTEVDRRLASGDTASAEAVAAEVKADIRDNLFGGRVSAVMVGSAPLSEELGEFIESCFELNLTDGYGSTEAGMVFRDGIVQRPPVIDYKLVDVPELGYFSTDKPHPRGELLLKTDGMFLGYYKRPEVTASVFDADGFYMTGDIVAELAHDNIEIIDRRNNVLKLSQGEFVAVATLEAEYANSPVVHQIYVYGSSERSYLLAVVVPTPEAVAAAKGDAAALKTTIADSLQDIAKEIQLQSYEVPRDFIIEPQPFTQGNGLLTGIAKLARPNLKAHYGPRLEQMYAEIAEQQAAELRALHGVDPDKPALETVLKAAQALLGVSSAELAADAHFTDLGGDSLSALSFSDLLRDIFAVEVPVGVIVSAANDLGGVAKFVDEQRHSGGTRPTAETVHGAGHTEIRAADLTLDKFIDEATLHAAPSLPKAAGIPHTVLLTGSNGYLGHYLALEWLERLDKTDGKLIVIVRGKNAEAAYGRLEEAFDTGDTELLAHFRSLADKHLEVLAGDIGDPNLGLDADTWQRLADTVDVIVHPAALVNHVLPYNQLFGPNVVGTAEIIKLAITTKIKPVTYLSTVAVAAYVDPTTFDEESDIRLISAVRPIDDGYANGYGNAKWAGEVLLREAHDLCGLPVAVFRSDMILAHSRYTGQLNVPDQFTRLILSLIATGIAPGSFYQAQTTGERPLAHYDGLPGDFTAEAITTLGTQVPEGSEGFVTYDCVNPHADGISLDNFVDWLIEAGYPIARIDNYTEWFTRFDTAIRGLSEKQKQHSLLPLLHAFEQPSAAENHGVVPAKRFQHAVQAAGIGPVGQDGTTDIPHLSRRLIVKYAKDLEQLGLL", "values": [{"measurement": "acceptance of N7-acetyl-7-aminoheptanoate as substrate (NADPH consumption), confirmed against the empty vector control", "result": "accepted N7-acetyl-7-aminoheptanoate as substrate"}]}]}
